B1: PCDH17 (protein, UniProt O14917 18-1159, looked up)
Protocadherin-17: LKNLNYSVPEEQGAGTVIGNIGRDARLQPGLPPAERGGGGRSKSGSYRVLENSAPHLLDVDADSGLLYTKQRIDRESLCRHNAKCQLSLEVFANDKEICMIKVEIQDINDNAPSFSSDQIEMDISENAAPGTRFPLTSAHDPDAGENGLRTYLLTRDDHGLFGLDVKSRGDGTKFPELVIQKALDREQQNHHTLVLTALDGGEPPRSATVQINVKVIDSNDNSPVFEAPSYLVELPENAPLGTVVIDLNATDADEGPNGEVLYSFSSYVPDRVRELFSIDPKTGLIRVKGNLDYEENGMLEIDVQARDLGPNPIPAHCKVTVKLIDRNDNAPSIGFVSVRQGALSEAAPPGTVIALVRVTDRDSGKNGQLQCRVLGGGGTGGGGGLGGPGGSVPFKLEENYDNFYTVVTDRPLDRETQDEYNVTIVARDGGSPPLNSTKSFAIKILDENDNPPRFTKGLYVLQVHENNIPGEYLGSVLAQDPDLGQNGTVSYSILPSHIGDVSIYTYVSVNPTNGAIYALRSFNFEQTKAFEFKVLAKDSGAPAHLESNATVRVTVLDVNDNAPVIVLPTLQNDTAELQVPRNAGLGYLVSTVRALDSDFGESGRLTYEIVDGNDDHLFEIDPSSGEIRTLHPFWEDVTPVVELVVKVTDHGKPTLSAVAKLIIRSVSGSLPEGVPRVNGEQHHWDMSLPLIVTLSTISIILLAAMITIAVKCKRENKEIRTYNCRIAEYSHPQLGGGKGKKKKINKNDIMLVQSEVEERNAMNVMNVVSSPSLATSPMYFDYQTRLPLSSPRSEVMYLKPASNNLTVPQGHAGCHTSFTGQGTNASETPATRMSIIQTDNFPAEPNYMGSRQQFVQSSSTFKDPERASLRDSGHGDSDQADSDQDTNKGSCCDMSVREALKMKTTSTKSQPLEQEPEECVNCTDECRVLGHSDRCWMPQFPAANQAENADYRTNLFVPTVEANVETETYETVNPTGKKTFCTFGKDKREHTILIANVKPYLKAKRALSPLLQEVPSASSSPTKACIEPCTSTKGSLDGCEAKPGALAEASSQYLPTDSQYLSPSKQPRDPPFMASDQMARVFADVHSRASRDSSEMGAVLEQLDHPNRDLGRESVDAEEVVREIDKLLQDCRGNDPVAVRK
B2: CLEC10A (protein, UniProt Q8IUN9 1-316, looked up)
C-type lectin domain family …: MTRTYENFQYLENKVKVQGFKNGPLPLQSLLQRLCSGPCHLLLSLGLGLLLLVIICVVGFQNSKFQRDLVTLRTDFSNFTSNTVAEIQALTSQGSSLEETIASLKAEVEGFKQERQAGVSELQEHTTQKAHLGHCPHCPSVCVPVHSEMLLRVQQLVQDLKKLTCQVATLNNNASTEGTCCPVNWVEHQDSCYWFSHSGMSWAEAEKYCQLKNAHLVVINSREEQNFVQKYLGSAYTWMGLSDPEGAWKWVDGTDYATGFQNWKPGQPDDWQGHGLGGGEDCAHFHPDGRWNDDVCQRPYHWVCEAGLGQTSQESH
B3: SPON2 (protein, UniProt Q9BUD6 27-331, looked up)
Spondin-2: QPLGGESICSARALAKYSITFTGKWSQTAFPKQYPLFRPPAQWSSLLGAAHSSDYSMWRKNQYVSNGLRDFAERGEAWALMKEIEAAGEALQSVHAVFSAPAVPSGTGQTSAELEVQRRHSLVSFVVRIVPSPDWFVGVDSLDLCDGDRWREQAALDLYPYDAGTDSGFTFSSPNFATIPQDTVTEITSSSPSHPANSFYYPRLKALPPIARVTLVRLRQSPRAFIPPAPVLPSRDNEIVDSASVPETPLDCEVSLWSSWGLCGGHCGRLGTKSRTRYVRVQPANNGSPCPELEEEAECVPDNCV
B4: CDIC (protein, UniProt P29017 18-333, looked up)
T-cell surface glycoprotein …: NADASQEHVSFHVIQIFSFVNQSWARGQGSGWLDELQTHGWDSESGTIIFLHNWSKGNFSNEELSDLELLFRFYLFGLTREIQDHASQDYSKYPFEVQVKAGCELHSGKSPEGFFQVAFNGLDLLSFQNTTWVPSPGCGSLAQSVCHLLNHQYEGVTETVYNLIRSTCPRFLLGLLDAGKMYVHRQVRPEAWLSSRPSLGSGQLLLVCHASGFYPKPVWVTWMRNEQEQLGTKHGDILPNADGTWYLQVILEVASEEPAGLSCRVRHSSLGGQDIILYWGHHFSMNWIALVVIVPLVILIVLVLWFKKHCSYQDIL
B5: COCH (protein, UniProt O43405 25-550, looked up)
Cochlin: EGAAPIAITCFTRGLDIRKEKADVLCPGGCPLEEFSVYGNIVYASVSSICGAAVHRGVISNSGGPVRVYSLPGRENYSSVDANGIQSQMLSRWSASFTVTKGKSSTQEATGQAVSTAHPPTGKRLKKTPEKKTGNKDCKADIAFLIDGSFNIGQRRFNLQKNFVGKVALMLGIGTEGPHVGLVQASEHPKIEFYLKNFTSAKDVLFAIKEVGFRGGNSNTGKALKHTAQKFFTVDAGVRKGIPKVVVVFIDGWPSDDIEEAGIVAREFGVNVFIVSVAKPIPEELGMVQDVTFVDKAVCRNNGFFSYHMPNWFGTTKYVKPLVQKLCTHEQMMCSKTCYNSVNIAFLIDGSSSVGDSNFRLMLEFVSNIAKTFEISDIGAKIAAVQFTYDQRTEFSFTDYSTKENVLAVIRNIRYMSGGTATGDAISFTVRNVFGPIRESPNKNFLVIVTDGQSYDDVQGPAAAAHDAGITIFSVGVAWAPLDDLKDMASKPKESHAFFTREFTGLEPIVSDVIRGICRDFLESQQ
B6: C1QTNF1 (protein, UniProt Q9BXJ1 26-281, looked up)
Complement C1q tumor necrosis …: RVPHVQGEQQEWEGTEELPSPPDHAERAEEQHEKYRPSQDQGLPASRCLRCCDPGTSMYPATAVPQINITILKGEKGDRGDRGLQGKYGKTGSAGARGHTGPKGQKGSMGAPGERCKSHYAAFSVGRKKPMHSNHYYQTVIFDTEFVNLYDHFNMFTGKFYCYVPGLYFFSLNVHTWNQKETYLHIMKNEEEVVILFAQVGDRSIMQSQSLMLELREQDQVWVRLYKGERENAIFSEELDTYITFSGYLVKHATEP
B7: CLM-6 (protein, UniProt Q08708 21-224, looked up)
CMRF35-like molecule 6: GYFPLSHPMTVAGPVGGSLSVQCRYEKEHRTLNKFWCRPPQILRCDKIVETKGSAGKRNGRVSIRDSPANLSFTVTLENLTEEDAGTYWCGVDTPWLRDFHDPIVEVEVSVFPAGTTTASSPQSSMGTSGPPTKLPVHTWPSVTRKDSPEPSPHPGSLFSNVRFLLLVLLELPLLLSMLGAVLWVNRPQRSSRSRQNWPKGENQ
B8: ATG4A (protein, UniProt Q8WYN0 1-398, looked up)
Cysteine protease ATG4A: MESVLSKYEDQITIFTDYLEEYPDTDELVWILGKQHLLKTEKSKLLSDISARLWFTYRRKFSPIGGTGPSSDAGWGCMLRCGQMMLAQALICRHLGRDWSWEKQKEQPKEYQRILQCFLDRKDCCYSIHQMAQMGVGEGKSIGEWFGPNTVAQVLKKLALFDEWNSLAVYVSMDNTVVIEDIKKMCRVLPLSADTAGDRPPDSLTASNQSKGTSAYCSAWKPLLLIVPLRLGINQINPVYVDAFKECFKMPQSLGALGGKPNNAYYFIGFLGDELIFLDPHTTQTFVDTEENGTVNDQTFHCLQSPQRMNILNLDPSVALGFFCKEEKDFDNWCSLVQKEILKENLRMFELVQKHPSHWPPFVPPAKPEVTTTGAEFIDSTEQLEEFDLEEDFEILSV
B9: IL-6RA (protein, UniProt P08887 20-468, looked up)
Interleukin-6 receptor …: LAPRRCPAQEVARGVLTSLPGDSVTLTCPGVEPEDNATVHWVLRKPAAGSHPSRWAGMGRRLLLRSVQLHDSGNYSCYRAGRPAGTVHLLVDVPPEEPQLSCFRKSPLSNVVCEWGPRSTPSLTTKAVLLVRKFQNSPAEDFQEPCQYSQESQKFSCQLAVPEGDSSFYIVSMCVASSVGSKFSKTQTFQGCGILQPDPPANITVTAVARNPRWLSVTWQDPHSWNSSFYRLRFELRYRAERSKTFTTWMVKDLQHHCVIHDAWSGLRHVVQLRAQEEFGQGEWSEWSPEAMGTPWTESRSPPAENEVSTPMQALTTNKDDDNILFRDSANATSLPVQDSSSVPLPTFLVAGGSLAFGTLLCIAIVLRFKKTWKLRALKEGKTSMHPPYSLGQLVPERPRPTPVLVPLISPPVSPSSLGSDNTSSHNRPDARDPRSPYDISNTDYFFPR
B10: Gal-4 (protein, UniProt P56470 1-323, looked up)
Galectin-4: MAYVPAPGYQPTYNPTLPYYQPIPGGLNVGMSVYIQGVASEHMKRFFVNFVVGQDPGSDVAFHFNPRFDGWDKVVFNTLQGGKWGSEERKRSMPFKKGAAFELVFIVLAEHYKVVVNGNPFYEYGHRLPLQMVTHLQVDGDLQLQSINFIGGQPLRPQGPPMMPPYPGPGHCHQQLNSLPTMEGPPTFNPPVPYFGRLQGGLTARRTIIIKGYVPPTGKSFAINFKVGSSGDIALHINPRMGNGTVVRNSLLNGSWGSEEKKITHNPFGPGQFFDLSIRCGLDRFKVYANGQHLFDFAHRLSAFQRVDTLEIQGDVTLSYVQI
B11: CKAP4 (protein, UniProt Q07065 1-602, looked up)
Cytoskeleton-associated …: MPSAKQRGSKGGHGAASPSEKGAHPSGGADDVAKKPPPAPQQPPPPPAPHPQQHPQQHPQNQAHGKGGHRGGGGGGGKSSSSSSASAAAAAAAASSSASCSRRLGRALNFLFYLALVAAAAFSGWCVHHVLEEVQQVRRSHQDFSRQREELGQGLQGVEQKVQSLQATFGTFESILRSSQHKQDLTEKAVKQGESEVSRISEVLQKLQNEILKDLSDGIHVVKDARERDFTSLENTVEERLTELTKSINDNIAIFTEVQKRSQKEINDMKAKVASLEESEGNKQDLKALKEAVKEIQTSAKSREWDMEALRSTLQTMESDIYTEVRELVSLKQEQQAFKEAADTERLALQALTEKLLRSEESVSRLPEEIRRLEEELRQLKSDSHGPKEDGGFRHSEAFEALQQKSQGLDSRLQHVEDGVLSMQVASARQTESLESLLSKSQEHEQRLAALQGRLEGLGSSEADQDGLASTVRSLGETQLVLYGDVEELKRSVGELPSTVESLQKVQEQVHTLLSQDQAQAARLPPQDFLDRLSSLDNLKASVSQVEADLKMLRTAVDSLVAYSVKIETNENNLESAKGLLDDLRNDLDRLFVKVEKIHEKV
B12: PGLYRP1 (protein, UniProt O75594 22-196, looked up)
Peptidoglycan recognition …: QETEDPACCSPIVPRNEWKALASECAQHLSLPLRYVVVSHTAGSSCNTPASCQQQARNVQHYHMKTLGWCDVGYNFLIGEDGLVYEGRGWNFTGAHSGHLWNPMSIGISFMGNYMDRVPTPQAIRAAQGLLACGVAQGALRSNYVLKGHRDVQRTLSPGNQLYHLIQNWPHYRSP
B13: IGFBP-2 (protein, UniProt P18065 36-325, looked up)
Insulin-like growth …: AEVLFRCPPCTPERLAACGPPPVAPPAAVAAVAGGARMPCAELVREPGCGCCSVCARLEGEACGVYTPRCGQGLRCYPHPGSELPLQALVMGEGTCEKRRDAEYGASPEQVADNGDDHSEGGLVENHVDSTMNMLGGGGSAGRKPLKSGMKELAVFREKVTEQHRQMGKGGKHHLGLEEPKKLRPPPARTPCQQELDQVLERISTMRLPDERGPLEHLYSLHIPNCDKHGLYNLKQCKMSLNGQRGECWCVNPNTGKLIQGAPTIRGDPECHLFYNEQQEARGVHTQRMQ

Tested on: plasma proteins
Test: Plasma proteins modulated between baseline and day 28 in responders (CR, VGPR, PR; n = 19), Example 6 (Table 13)
Assay type: in vivo, human
Conditions: plasma protein (OLINK NPX); responders (CR, VGPR, PR; n = 19); itacitinib 200 mg or 300 mg QD with corticosteroids; day 28 vs baseline
In short: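 Longitudinal comparison, day 28 versus baseline, with steroid-naive (N=10) and steroid-refractory (N=18) patients combined. Proteins measured by OLINK proximity extension, log2 normalized protein expression. Differences tested by t tests, ANOVA, Pearson correlation, P<0.05 significant.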

Molecule	Fold Change, Decreased Expression from Baseline to Day 28	Fold Change, Increased Expression from Baseline to Day 28
B1	−1.232	
B2	−1.274	
B3		1.095
B4	−1.5651	
B5	−1.22	
B6	−1.2979	
B7	−1.1356	
B8	−1.3651	
B9	−1.1901	
B10		1.4274
B11	−1.1904	
B12	−1.6181	
B13	−1.2058	

— US12099068B2, “Biomarkers for graft-versus-host disease” (Incyte Corporation, priority 2018, dated 2024)
